These results are taken from paper PMC5432818, “Biochemical characterization of a functional recombinant aryl-alcohol dehydrogenase from Taiwanofungus camphorata” (Botanical Studies, 2014).

For this data set, the system named is COc1ccc(C=O)cc1OC. Description: purified protein. The settings on record: reduction, 0.2 mM NADPH fixed, 25 mM bis-tris-propane/HCl pH 6.0, 25 °C, veratraldehyde 0.1-0.4 mM. The format is biochemical, Taiwanofungus camphoratus.

Consider “TcAAD (also printed TcADD) (Taiwanofungus camphoratus)”, for which the Km is reported as 0.25 mM.
